This is an account of results in the DeepSol protein solubility set.

This data set is described as follows: soluble on expression in E. coli; label from the status in PepcDB or PDB records.
On to “MGSDKIHHHHHHMHMAAKRGRTAQRLELGLQLRQLRENCDGGDRGVGLTRKQAVQGLRISEASLQRIETGSLNFRFVGDLRKLLTKYGVTDEDVVDSLISLNRESNQQDWLTQYRGLMPSGMPGFVGLEPEAHAMKAYHPTLVYGLLQTERYARAVHEVQKPIEEYTTEFIRSSVELRMKRQEVLTRESPVKLHVILGEAALRYPIGGAEVMREQCARIEELSGWDHITVQVLPFRPSYRSINDFAILDFGNNLPPRVQADSAWGSVSTSDKPREVDRFSRRFDTMTASALPPEDTPEFLHRLEREL”, for which the “soluble on expression in E. coli” value is “not soluble”. The entry for “MEKLHQCYWKSGEPQSDDIEASRMKRAAAKHLIERYYHQLTEGCGNEACTNEFCASCPTFLRMDNNAAAIKALELYKINAKLCDPHPSKKGASSAYLENSKGAPNNSCSEIKMNKKGARIDFKDVTYLTEEKVYEILELCREREDYSPLIRVIGRVFSSAEAL” is “soluble”; for “MGSDKIHHHHHHMKTQFPSVWQDKLSQKHFSAFTTIQEAAFDPIKNGKSLLGISPTGSGKTLAYLWPSLLTLTPKKAQQLLILAPNTELAGQIFEVAKEWAQPLNLTAQLFLSGSSQKRQIERLKKGPEIIIGTPGRVFDLVKLKKIKMMNVNTIVLDEFDDLLGKSQIHFVKNIVKRVPRDHQMIYMSATNSIDRTFLADDTLEIDLSKQTVDTISHYYITVAKRERGELLRKFSNIPNFRGLVFFNRLSDLGANEERLQFSGASAVSLASDVNIKFRKVILEKFKNHELSLLLATDLVARGIDIELLETVINFDLPRDKDAYNHRAGRTGRMGKNGIVVTFISHPEELKKLKKFAHVSEVYLKNQILHKK” it is “not soluble”; for “MQGEDTIMKTTELKLVYFSPTGTTRRVIMEAARQIDLKSVSFDLSVHKEKKPVLQFDETDFVLFGIPVYSGRVPETFLSYFETLKGNNTPAALIATYGCRAYEDALLELKTEVENRGFHVIGAGAFPTEHSIVRSIGLSRPNKADLKTISEFGIALNRRIKNEDLSALSIQVPGNTPYRKYAKTPLIPKADVSLCTECKACVKSCPAGAISAQDPKKTDKKKCISCLRCVRSCKQKARSVSSMKLSMAAKKLNKVCQSDKAADIFL” it is “not soluble”.

“MATFEEVSVLGFEEFDKAVKEHESKTIFAYFSGSKDTEGKSWCPDCVEAEPVIREGLKHVTEDCVFIYCQVGDKPYWKDPNNDFRQKLKITAVPTLLKYGTPQKLVESECCQSSLVEMIFSED”: the “soluble on expression in E. coli” value is recorded as “soluble”. With “SNAMKEALATGSEAWWRTKTGPEWIREKDGNYRVTFWWRDPQGNETHSPIRRVWVYITGVTDHHQNAQPQTMARIAGTDVWRWSTALSANWRGSYCFIPTERDDVFAAFAPGETPDRNVLREGWRQLLPQAIADPLNSQSWRGGRGHAVSALEMPDAPLQPGWDRPETPYSPPLMMQWHSERLGNSRRVWILTTGDEAPEERPLAILLDGQFWAENMPVWPALASLTHQRLLPGAVYLLIDAIDTQHRSQELPCNADFWLAVQQELLPQVRAVTPFSDDAGRTVVAGQSFGGLSALYAGLNWPTRFGCVLSQSGSFWWPHRITPPEGEVITRLKTGALCARGLRIVLEAGVREPIVFQANQALYAQLNTSQQSIFWRQVDGGHDALCWRGGLTQGLMLLWQPLIDTL”, the “soluble on expression in E. coli” value is “soluble”.

Take “MGSDKIHHHHHHMVALTDPDLLFPPEAHSRSLARDLYAGIKDLPIVSPHGHTDPRWYALNEPFPDPAQLLIVPDHYIFRMLFSQGVRLEDLGVASLDGAPVETDGRTIWRRFAEHYYLFRGTPTRLWFDHVLAHLFGIEEPLDATTADRHYDTIATVLQWENFRPRALFERFNIEVIATTEGALDDLEWHKMIRDSGWEGRVVTAYRPDAVVDPDFEGFSANLDRLGEITGCDTGSWAGYLDAHRQRRAFFKSFGATSSDHGHPTAETANLSDAAAQELFNRIRRGSQDERERKLFRAQMLTEMAKMSRDDGLVLQIHPGSWRNHSPSVFQRFGRDKGFDIPTRTDYVTALKPLLDCVGLERDLTVILFTLDESSYARELAPLAGVYPALKLGPAWWFHDSPEGMRRFREMTTETAGFYNTVGFNDDTRAFPSIPARHDVARRVDCAFLARLVAEHRLREDEAHELARELAHTLAKKAYRL”: the “soluble on expression in E. coli” value is “not soluble”. As for “MQNHVISLASAAERRAHIAATFGSRGIPFQFFDALMPSERLEQAMAELVPGLSAHPYLSGVEKACFMSHAVLWKQALDEGLPYIAVFEDDVLLGKDAEKFLAEDTWLEERFDKDSAFIVRLETMFAKVIVRPDKVLNYENRSFPLLESEHCGTAGYIISREAMRFFLDRFAVLPPERIKAVDLMMFTYFFDKEGMPVYQVSPALCTQELHYAKFLSQNSMLGSDLEKDREQGRRHRRSLKVMFDLKRALGKFGREKKKRMERQRQAELEKVYGRRVILFKLEHHHHHH”, the entry is “soluble”; as for “MIRSFADRDTELVWLREGAKRVDPRIHKVANRKLHLLDAATTLDALRVTPGNRLETLEGDRVGQYSIRVNDQWRICFRWNDSGPENVEIVDYH”, “not soluble”. Consider “MKHSGYLWAIGKNVWKRWKKRFFVLVQVSQYTFAMCSYREKKAEPQELLQLDGYTVDYTDPQPGLEGGRAFFNAVKEGDTVIFASDDEQDRILWVQAMYRATGQSHKPVPPTQ”, for which the “soluble on expression in E. coli” value is recorded as “soluble”. As for “MEKASSPEKWLAKVSVTLTKAKPDEIWPLFTDFFNLHKWLPTLATCHGVHGNNGEQGCIRFCSGFSIGSNGVDSAARWSKEKLVAVNPVERVMRYEIVESNTGFESYVSTVKILPRGEDGCVIEWSFTVDPVRGLSLENLVKKYEKALEIITKNMEEDALRRRESSS”, the entry is “soluble”; as for “MGSDKIHHHHHHMDSLLMNRRKFLYQFKNVRWAKGRRETYLCYVVKRRDSATSFSLDFGYLRNKNGCHVELLFLRYISDWDLDPGRCYRVTWFTSWSPCYDCARHVADFLRGNPNLSLRIFTARLYFCEDRKAEPEGLRRLHRAGVQIAIMTFKDYFYCWNTFVENHERTFKAWEGLHENSVRLSRQLRRILLPLYEVDDLRDAFRTLGL”, “not soluble”; as for “MSLQIKFIDLFSGMSGIRKGFEQACRKQSVACECVFTSEIKPAALEVLKQNYPDEVPYGDITKIETGDIPDFDILLAGFPCQAFSFAGKRLGFEDTRGTLFFDVARILKAKKPKGFILENVEGLVTHDRKDPTQKIGRTLTVILETLETLGYYVSWKVLNAKDFGIPQNRKRIYLTGSLKSKPDLSFETTLSPKLKNILESGLPTESSPFIKKLLKKFPPSELYGKSVKDKRGGKNNIHSWDIELKGTVTEEEKQLLNMLLKERRKKKWASEIGIDWMDGMPLTKAQISTFYKHPNLQNILDSLTDKGYLVLEHPKQKIGGRRIKDESLPKGYNIVSGKKSFEINKILDPNDVAPTLVAMDMEHLFVVDNGGLRTLTGKEGLRLFGYPDDYSFDIPKKDKYDLLGNTVAVPVIKAVSERLLHTLEGHHHHHH”, “soluble”. On to “RGSHMCDAFVGTWKLVSSENFDDYMKEVGVGFATRKVAGMAKPNMIISVNGDVITIKSESTFKNTEISFILGQEFDEVTADDRKVKSTITLDGGVLVHVQKWDGKSTTIKRKREDDKLVVECVMKGVTSTRVYERA”, for which the “soluble on expression in E. coli” value is on record as “soluble”. The entry for “DAIAVWGHRPSAAKPVAIAKAAGKPVIRLEDGFVRSLDLGVNGEPPLSLVVDDCGIYYDASKPSALEKLVQDKAGNAALADQAREAMHTIVTGDLSKYNLAPAFVADESERADIVLVVDQTFNDMSVTYGNAGPHEFAAMLEAAMEENPQAEIWVKVHPDVLEGKKTGYFADLRATQRVRLIAENVSPQSLLRHVSRVYVVTSQYGFEALLAGKPVTCFGQPWYAGWGLTDDRHPQSALLSARRGSATLEELFAAAYLRYCRYIDPLTG” is “not soluble”.

For “MGSDKIHHHHHHMTKESILTFSQSKAEPAWLQEKRLAAFDKIDDLELPRIERVKFQRWNLGDGTITESPISANVPDFTSFGENPKLVQLGTQTVLESLPAKLVEQGVVFTDFHSALEEIPQVIEKYFATALKFDEDKLSAYHTAYFNSGSVLYVPDNVEIDLPLEGIFLQDSTSNVPLNKHVLIIAGRHAKVNYLERFETIGDSDVKATANIAVEVLAQAGSQVKFAAIDRLGNNITTYISRRGRLDNDASIDWALGVMNEGNVIADFDSDLIGNGSHAELKVVAASSGRQIQGIDTRVTNYGNNSIGHILQHGVILERGTLTFNGIGHIIKGAKGADAQQESRVLMLSDKARSDANPILLIDENEVTAGHAASIGQVDPEDMYYLMSRGIDKETAERLVIRGFLGTVITEIPVKAVRDEMIAVLDEKLDKR”, the “soluble on expression in E. coli” value is listed as “not soluble”.

Consider “MGSDKIHHHHHHMQETKTTVRASTLSNGRSLAAYHEDFDRKWASAWGRTLTYAQMHANRVVQSARIVLSHPDIWGKVASGFVNAARGRKRLLRSLEIAVTYRCNARCEQCSCRRDHDPVREKTELLTLPELQRVIDEAVDMGAFQFCINGGEPMLEEEKVFALLDYIKTRHKGYVHLCTNGTLLDDDKVARLAEHHLDSVEMGFDSAFEDVHDANRVRGGYRKVFHNIEAFRKRGVGVVLNTILTNQKVRSDDMLFTMDLAKKHGCMLQVTPCCLTGALRGRMDMMLTEKARFYFYWFLAQSTNNRSDLYSSLTRIKCPAGREKLGLQPYGDVVSCPLIQIRYGNVREKGLAAIQQDILADPYYGLDGSHGCLPAMSETFIRERLSGDR”, for which the “soluble on expression in E. coli” value was “not soluble”.

Take “HQITRTVPAKRGTIYDRNGVPIAEDATSYNVYAVIDKKYKSATGKILYVEDAQFNKVAEVFHKYLDMEESYVREQLSQPNLKQVSFGSKGNGITYANMMAIKKELETAEVKGIDFTTSPNRSYPNGQFASSFIGLAQLHENEDGSKSLLGTSGMESSLNSILAGTDGIITYEKDRVGNIVPGTELVSQQTVDGKDVYTTLSSPLQSFMETQMDAFLEKVKGKYMTATLVSAKTGEILATTQRPTFNADTKEGITEDFVWRDILYQSNYEPGSAMKVMTLASSIDNNTFPSGEYFNSSELKIADATTRDWDVNEGLTTGGMMTFLQGFAHSSNVGMSLLEQKMGDATWLDYLKRFKFGVPTRFGLTDEYAGQLPADNIVSIAQSSFGQGISVTQTQMLRAFTAIANDGVMLEPKFISAIYDTNNQSVRKSQKEIVGNPVSKEAASTTRNHMILVGTDPLYGTMYNHYTGKPIITVPGQNVAVKSGTAQIADEKNGGYLVGSTNYIFSAVTMNPAENPDFILYVTVQQPEHYSGIQLGEFATPILERASAMKESLNLQSPAKNLDKVTTESSYAMPSIKDISPGELAEALRRNIVQPIVVGTGTKIKETSVEEGTNLAPNQQVLLLSDKVEEIPDMYGWKKETAETFAKWLDIELEFEGSGSVVQKQDVRTNTAIKNIKKIKLTLGD”: the “soluble on expression in E. coli” value was “soluble”. The entry for “MAESMQSKPSFEYPKRAAIGSYWSNRNRDEKHFKNLGPASLSSASAGKVMQWMLSHTCNGVPKPKGGYDAFGKIWYAPCNMAESVAQWRASMSNDEAQPAKNRVYWIGHSSQLLCLSNGINILFDPIFSQRASPLSFAGPSRRFPPAATAAQLPPIHIVTVSHNHYDHMDKQSIKAVAARFPDAHFVVPLKLDRFLREWGVPGASITTLDWYEACEVKGVRVGCTPAQHWGKHSAFDDNEVLWCGWCVGWQPGQQQQPASTCEKPTLISFSGIEPSSEALVEAQRTWNRYKKYFFAGDTAYNPDVSTSIYAHFGPMDMAALPIGAYSPRWFMARAHIDPEHAVQIFKDQHIQQAVAVHWGTFELADEPLDEPPQVLRKTLKDASIDENRFQIIPMGKFIEF” is “soluble”. The entry for “MFVLSIALLSCTTLCAATTEWWGDLRAHLNPARQAPFYDVTYDEKVNVCPQGLHADAIPEYVYFGTMLATMTVDEHDQCLQKCAEKPRCKAVNFFHPFAYQEKGFCELLTEGQLDNPSLMRPFRKATYYEKIRCRELDDVEDVEEAAPIGSEITEKLPEDMAREKKLDMSKLMKKLSAKVKEFNGGAGGFRAAR” is “not soluble”.
